# Key:
# Mushroom tyrosinase [1] = target: T1, Mushroom tyrosinase (mushroom, UniProt C7FF04 1-392); assay: cell-based or functional assay
# Mushroom tyrosinase [2] = target: T1, Mushroom tyrosinase; assay: cell-based or functional assay; remark: listed apart in the source
# T1 sequence (C7FF04 1-392): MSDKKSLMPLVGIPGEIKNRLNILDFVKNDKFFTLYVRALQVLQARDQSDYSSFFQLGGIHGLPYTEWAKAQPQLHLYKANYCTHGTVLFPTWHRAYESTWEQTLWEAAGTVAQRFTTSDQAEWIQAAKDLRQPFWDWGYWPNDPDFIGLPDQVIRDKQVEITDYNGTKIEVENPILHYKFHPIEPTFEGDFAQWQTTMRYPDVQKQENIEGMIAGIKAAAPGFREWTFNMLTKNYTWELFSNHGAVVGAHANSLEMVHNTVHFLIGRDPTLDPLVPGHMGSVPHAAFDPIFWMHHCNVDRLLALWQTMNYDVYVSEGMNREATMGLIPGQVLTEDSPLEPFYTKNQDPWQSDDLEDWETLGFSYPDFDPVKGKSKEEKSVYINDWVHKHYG
"IC50 (inhibition of mushroom tyrosinase, dopachrome absorbance at 475 nM) (Mushroom tyrosinase [1]) [µM]",IC50 (inhibition of mushroom tyrosinase) (Mushroom tyrosinase [2]) [µM],Binder
3600,,KFEKKFEK [KFEKKFEK (KF peptide)]
40,40,YRSRKYSSWY [YRSRKYSSWY (YR peptide)]
